From paper PMC5362899, “Structural insights into the nucleotide base specificity of P2X receptors” (Scientific Reports, 2017)

Molecular target: zebrafish P2X4 construct ΔP2X4-C (ΔN27/ΔC24/N78K/N187R) (zebrafish) (UniProt F8W463)
Experiment: crystal structure; ΔP2X4-C (2 mg/ml) with 3 mM CTP; crystals grown at 4 °C by cross-seeding in 20-26% PEG 2000, 300 mM Mg(NO3)2, 100 mM Tris pH 8.0; 2.8 Å

stoichiometry N: 3
Substance: zebrafish P2X4 construct ΔP2X4-C (ΔN27/ΔC24/N78K/N187R) (from UniProt F8W463 28-365) (receptor)
